Our source for the Kd values is PMC9981700 (2023).

This assay has as its target T1, Notch2 (Leu26–Gln530), recombinant protein (UniProt Q04721 26-530).
T1 chain: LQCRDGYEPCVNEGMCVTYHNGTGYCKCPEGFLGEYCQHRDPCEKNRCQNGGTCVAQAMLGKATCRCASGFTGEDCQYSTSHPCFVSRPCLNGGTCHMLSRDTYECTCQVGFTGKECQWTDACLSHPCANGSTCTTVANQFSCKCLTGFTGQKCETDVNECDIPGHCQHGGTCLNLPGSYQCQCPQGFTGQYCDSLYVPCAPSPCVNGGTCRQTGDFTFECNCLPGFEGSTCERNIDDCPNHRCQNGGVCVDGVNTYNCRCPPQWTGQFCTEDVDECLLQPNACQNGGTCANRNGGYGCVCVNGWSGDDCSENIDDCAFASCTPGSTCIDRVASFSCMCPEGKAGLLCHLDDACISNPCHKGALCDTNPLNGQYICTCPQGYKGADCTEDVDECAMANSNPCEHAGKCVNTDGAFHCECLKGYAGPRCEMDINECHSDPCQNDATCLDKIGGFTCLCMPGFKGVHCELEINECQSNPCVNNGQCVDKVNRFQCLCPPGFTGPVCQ
As to the kind of experiment: BLI.

B1: Fibulin2 (Ala28–Leu1184), recombinant protein (natural protein)
chain: APRQDCTGVECPPLENCIEEALEPGACCATCVQQGCACEGYQYYDCLQGGFVRGRVPAGQSYFVDFGSTECSCPPGGGKISCQFMLCPELPPNCIEAVVVADSCPQCGQVGCVHAGHKYAAGHTVHLPPCRACHCPDAGGELICYQLPGCHGNFSDAEEGDPERHYEDPYSYDQEVAEVEAATALGGEVQAGAVQAGAGGPPAALGGGSQPLSTIQAPPWPAVLPRPTAAAALGPPAPVQAKARRVTEDSEEEEEEEEEREEMAVTEQLAAGGHRGLDGLPTTAPAGPSLPIQEERAEAGARAEAGARPEENLILDAQATSRSTGPEGVTHAPSLGKAALVPTQAVPGSPRDPVKPSPHNILSTSLPDAAWIPPTREVPRKPQVLPHSHVEEDTDPNSVHSIPRSSPEGSTKDLIETCCAAGQQWAIDNDECLEIPESGTEDNVCRTAQRHCCVSYLQEKSCMAGVLGAKEGETCGAEDNDSCGISLYKQCCDCCGLGLRVRAEGQSCESNPNLGYPCNHVMLSCCEGEEPLIVPEVRRPPEPAAAPRRVSEAEMAGREALSLGTEAELPNSLPGDDQDECLLLPGELCQHLCINTVGSYHCACFPGFSLQDDGRTCRPEGHPPQPEAPQEPALKSEFSQVASNTIPLPLPQPNTCKDNGPCKQVCSTVGGSAICSCFPGYAIMADGVSCEDINECVTDLHTCSRGEHCVNTLGSFHCYKALTCEPGYALKDGECEDVDECAMGTHTCQPGFLCQNTKGSFYCQARQRCMDGFLQDPEGNCVDINECTSLSEPCRPGFSCINTVGSYTCQRNPLICARGYHASDDGTKCVDVNECETGVHRCGEGQVCHNLPGSYRCDCKAGFQRDAFGRGCIDVNECWASPGRLCQHTCENTLGSYRCSCASGFLLAADGKRCEDVNECEAQRCSQECANIYGSYQCYCRQGYQLAEDGHTCTDIDECAQGAGILCTFRCLNVPGSYQCACPEQGYTMTANGRSCKDVDECALGTHNCSEAETCHNIQGSFRCLRFECPPNYVQVSKTKCERTTCHDFLECQNSPARITHYQLNFQTGLLVPAHIFRIGPAPAFTGDTIALNIIKGNEEGYFGTRRLNAYTGVVYLQRAVLEPRDFALDVEMKLWRQGSVTTFLAKMHIFFTTFAL
As to B1, the Kd came to 1.22 nM.
